Reference: paper PMC8630788
One block for each molecule: values may come before it.

How the values were obtained:
[1] = target: optimized bait-PAR-Grb2, GFP-fused (with inserted flexible linker sequences between fluorophore and Grb2) (UniProt P62993); assay: subcellular micropatterning (bait-prey copatterning, TIRF microscopy); live HeLa cells co-expressing bait-PAR-Grb2 and fluorescent prey on anti-HA antibody patterned COP substrate; bait-normalized prey contrast; basal conditions, before EGF
[2] = target: optimized bait-PAR-Grb2, GFP-fused (with inserted flexible linker sequences between fluorophore and Grb2) (UniProt P62993); assay: as above; remark: listed apart in the source
[3] = target: optimized bait-PAR-Grb2, GFP-fused (with inserted flexible linker sequences between fluorophore and Grb2) (UniProt P62993); assay: TIR-FRAP on bait micropatterns; live HeLa cells co-transfected with bait-PAR-Grb2 and prey on anti-HA patterns; EGF (170 nM) for at least 5 min before FRAP; single patterns bleached for 500 ms; bi-exponential, diffusion-uncoupled two-component fit
[4] = target: optimized bait-PAR-Grb2, GFP-fused (with inserted flexible linker sequences between fluorophore and Grb2) (UniProt P62993); assay: subcellular micropatterning (bait-prey copatterning, TIRF microscopy); live HeLa cells co-expressing bait-PAR-Grb2 and fluorescent prey on anti-HA antibody patterned COP substrate; bait-normalized prey contrast; after EGF stimulation (170 nM, 10 min)
[5] = target: optimized bait-PAR-Grb2, RFP-fused (UniProt P62993); assay: subcellular micropatterning (bait-prey copatterning, TIRF microscopy); competition in live HeLa cells: bait-PAR-Grb2-RFP and Gab1-GFP on anti-HA patterns, cyclo(YpVNFΦrpPRR) added to the cells (100 μM over time; dose-response); bait-normalized contrast set between 0 and 100%
[6] = target: optimized bait-PAR-Grb2, RFP-fused (UniProt P62993); assay: subcellular micropatterning (bait-prey copatterning, TIRF microscopy); competition in live HeLa cells: bait-PAR-Grb2-RFP and GFP-fused SOS1 on anti-HA patterns, cyclo(YpVNFΦrpPRR) added to the cells (100 μM over time; dose-response); bait-normalized contrast set between 0 and 100%
[7] = target: optimized bait-PAR-Grb2, RFP-fused, P62993; assay: subcellular micropatterning (bait-prey copatterning, TIRF microscopy); live HeLa cells with bait-PAR-Grb2-RFP and GFP-fused Gab1 or SOS1 on anti-HA patterns, treated with 10 μM actinomycin D, copatterning followed over time; settings: remark: other sources report otherwise
[8] = target: optimized bait-PAR-Grb2, RFP-fused, P62993; assay: subcellular micropatterning (bait-prey copatterning, TIRF microscopy); live HeLa cells co-expressing bait-PAR-Grb2 and fluorescent prey on anti-HA antibody patterned COP substrate; bait-normalized prey contrast; basal conditions, before EGF; settings: remark: other sources report otherwise
[9] = target: optimized bait-PAR-Grb2, RFP-fused, P62993; assay: TIR-FRAP on bait micropatterns; live HeLa cells co-transfected with bait-PAR-Grb2 and prey on anti-HA patterns; EGF (170 nM) for at least 5 min before FRAP; single patterns bleached for 500 ms; bi-exponential, diffusion-uncoupled two-component fit; settings: remark: other sources report otherwise
[10] = target: optimized bait-PAR-Grb2, RFP-fused, P62993; assay: subcellular micropatterning (bait-prey copatterning, TIRF microscopy); live HeLa cells co-expressing bait-PAR-Grb2 and fluorescent prey on anti-HA antibody patterned COP substrate; bait-normalized prey contrast; after EGF stimulation (170 nM, 10 min); settings: remark: other sources report otherwise

- bait-normalized fluorescence contrast <c prey/bait> [1]: 0.21
- bait-normalized fluorescence contrast <c prey/bait> [2]: 0.14
- half-time of dissociation (FRAP) [3]: 10 s
- k slow (exchange rate, FRAP) [3]: 0.103 s⁻¹
- bait-normalized fluorescence contrast <c prey/bait> [4]: 0.45
Molecule: SHC-transforming protein 1 (Shc1), RFP-fused (from UniProt P29353 1-583) (natural protein)

- EC50 [5]: 68 µM
- dissociation half-life of Gab1 from Grb2 at 100 μM peptide [5]: 42 s
- maximum prey dissociation at 100 μM peptide (Gab1 from Grb2) [5]: 70 to 75%
- EC50 [6]: 63 µM
- dissociation half-life of SOS1 from Grb2 at 100 μM peptide [6]: 36 s
- maximum prey dissociation at 100 μM peptide (SOS1 from Grb2) [6]: 70 to 75%
Molecule: cell-permeable cyclic peptide cyclo(YpVNFΦrpPRR)

- dissociation half-life with 10 μM actinomycin D [7]: 84 s
- reduction of copatterning with 10 μM actinomycin D [7]: 25%
- bait-normalized fluorescence contrast <c prey/bait> [8]: 0.55
- half-time of dissociation (FRAP) [9]: 13 s
- k slow (exchange rate, FRAP) [9]: 0.074 s⁻¹
- bait-normalized fluorescence contrast <c prey/bait> [10]: 0.56
B1: son of sevenless protein 1 (SOS1), GFP-fused, Q07889 1-1333 (natural protein)
chain: MQAQQLPYEFFSEENAPKWRGLLVPALKKVQGQVHPTLESNDDALQYVEELILQLLNMLCQAQPRSASDVEERVQKSFPHPIDKWAIADAQSAIEKRKRRNPLSLPVEKIHPLLKEVLGYKIDHQVSVYIVAVLEYISADILKLVGNYVRNIRHYEITKQDIKVAMCADKVLMDMFHQDVEDINILSLTDEEPSTSGEQTYYDLVKAFMAEIRQYIRELNLIIKVFREPFVSNSKLFSANDVENIFSRIVDIHELSVKLLGHIEDTVEMTDEGSPHPLVGSCFEDLAEELAFDPYESYARDILRPGFHDRFLSQLSKPGAALYLQSIGEGFKEAVQYVLPRLLLAPVYHCLHYFELLKQLEEKSEDQEDKECLKQAITALLNVQSGMEKICSKSLAKRRLSESACRFYSQQMKGKQLAIKKMNEIQKNIDGWEGKDIGQCCNEFIMEGTLTRVGAKHERHIFLFDGLMICCKSNHGQPRLPGASNAEYRLKEKFFMRKVQINDKDDTNEYKHAFEIILKDENSVIFSAKSAEEKNNWMAALISLQYRSTLERMLDVTMLQEEKEEQMRLPSADVYRFAEPDSEENIIFEENMQPKAGIPIIKAGTVIKLIERLTYHMYADPNFVRTFLTTYRSFCKPQELLSLIIERFEIPEPEPTEADRIAIENGDQPLSAELKRFRKEYIQPVQLRVLNVCRHWVEHHFYDFERDAYLLQRMEEFIGTVRGKAMKKWVESITKIIQRKKIARDNGPGHNITFQSSPPTVEWHISRPGHIETFDLLTLHPIEIARQLTLLESDLYRAVQPSELVGSVWTKEDKEINSPNLLKMIRHTTNLTLWFEKCIVETENLEERVAVVSRIIEILQVFQELNNFNGVLEVVSAMNSSPVYRLDHTFEQIPSRQKKILEEAHELSEDHYKKYLAKLRSINPPCVPFFGIYLTNILKTEEGNPEVLKRHGKELINFSKRRKVAEITGEIQQYQNQPYCLRVESDIKRFFENLNPMGNSMEKEFTDYLFNKSLEIEPRNPKPLPRFPKKYSYPLKSPGVRPSNPRPGTMRHPTPLQQEPRKISYSRIPESETESTASAPNSPRTPLTPPPASGASSTTDVCSVFDSDHSSPFHSSNDTVFIQVTLPHGPRSASVSSISLTKGTDEVPVPPPVPPRRRPESAPAESSPSKIMSKHLDSPPAIPPRQPTSKAYSPRYSISDRTSISDPPESPPLLPPREPVRTPDVFSSSPLHLQPPPLGKKSDHGNAFFPNSPSPFTPPPPQTPSPHGTRRHLPSPPLTQEVDLHSIAGPPVPPRQSTSQHIPKLPPKTYKREHTHPSMHRDGPPLLENAHSS
